Measurements as given in PMC2517623, “The NDR/LATS Family Kinase Cbk1 Directly Controls Transcriptional Asymmetry” (PLoS Biology, 2008).

B1: GST-Ace2(122-150) F127V (domain or fragment)
chain: SGTAIVGFLGHNKTLSISSLQQSILNMSK
notes: source: E. coli BL21(DE3)RIL, immobilised from lysate on glutathione-sepharose and washed; not shown: GST, N-terminal, kept
B2: GST-Ace2(122-150) S122D (domain or fragment)
chain: DGTAIFGFLGHNKTLSISSLQQSILNMSK
notes: as for B1
B3: GST-Ace2(122-150), wild-type (domain or fragment)
chain: SGTAIFGFLGHNKTLSISSLQQSILNMSK
notes: as for B1
B4: GST-Ace2(122-150) S137D (domain or fragment)
chain: SGTAIFGFLGHNKTLDISSLQQSILNMSK
notes: as for B1

target: His6-Crm1 (S. cerevisiae, UniProt P30822 1-1084); assay: pull-down; GST fusions immobilised on glutathione-sepharose from E. coli lysate and washed five times in PBS/KMD; His6-Xpo1 (Crm1) 5 μM in 100 μl, 4 °C, 15 min; washed with TBST; SDS-PAGE, GelCode Blue; without Ran-GTP; conditions: both partners purified

Binding result, binds:
B1
B2
B3
B4
